In PMC9352680, “A comprehensive thermodynamic model for RNA binding by the Saccharomyces cerevisiae Pumilio protein PUF4” one finds Kd data, which are given here for 27 molecules.

First the molecules themselves.
T1: PUF4 RNA-binding domain (Saccharomyces cerevisiae, UniProt P25339 537-888)
T1 sequence: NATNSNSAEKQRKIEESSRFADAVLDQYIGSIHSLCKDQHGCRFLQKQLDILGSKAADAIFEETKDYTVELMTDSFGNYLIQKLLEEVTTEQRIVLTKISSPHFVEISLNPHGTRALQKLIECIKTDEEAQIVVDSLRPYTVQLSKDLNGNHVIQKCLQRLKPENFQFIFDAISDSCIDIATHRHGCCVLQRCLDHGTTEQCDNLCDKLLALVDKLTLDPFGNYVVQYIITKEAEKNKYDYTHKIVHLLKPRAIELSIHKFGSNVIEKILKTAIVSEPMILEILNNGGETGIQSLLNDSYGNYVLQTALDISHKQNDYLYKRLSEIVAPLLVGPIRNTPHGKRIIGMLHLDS

B1: Ic_S4_P5E.1_K5.1_C5.1_H5.1_A5.1_[T6A]_[A7G]_F5.1_[T8C]_[T9A]_[A10T]_T5.1 (ssRNA)
RNA: UUUGACAACUGAUCGUUCUUUCUUGUAUAGCAUUUCUUUCUCGAUCAGUUGUCUUU
B2: Ic_S4_P5E.1_K5.1_C5.1_H5.1_A5.1_[T5C]_[T6A]_[A7T]_F5.1_[T8A]_[T9A]_[A10C]_T5.1 (ssRNA)
RNA: B1 RNA with U28C, G30U, C31A, U33C
B3: Ic_S4_P5E.1_K5.1_C5.1_H5.1_A5.1_[A7G]_F5.1_[T8C]_[T9C]_[A10T]_T5.1 (ssRNA)
RNA: B1 RNA with A29U, A32C
B4: Ic_S4_P5E.1_K5.1_C5.1_H5.1_A5.1_[T5C]_F5.1_[T8A]_[T9C]_[A10C]_T5.1 (ssRNA)
RNA: B1 RNA with U28C, A29U, G30A, C31A, A32C, U33C
B5: Ic_S4_P5E.1_K5.1_C5.1_H5.1_A5.1_[T5G]_[T6C]_[A7T]_F5.1_[T8C]_[T9G]_[A10T]_T5.1 (ssRNA)
RNA: B1 RNA with U28G, A29C, G30U, A32G
B6: Ic_S4_P5E.1_K5.1_C5.1_H5.1_A5.1_[T5G]_[A7C]_F5.1_[T9C]_[A10G]_T5.1 (ssRNA)
RNA: B1 RNA with U28G, A29U, G30C, C31U, A32C, U33G
B7: Ic_S4_P5E.1_K5.1_C5.1_H5.1_A5.1_[T6C]_[A7T]_F5.1_[T9C]_[A10C]_T5.1 (ssRNA)
RNA: B1 RNA with A29C, G30U, C31U, A32C, U33C
B8: Ic_S4_P5E.1_K5.1_C5.1_H5.1_A5.1_[T5A]_[A7G]_F5.1_[T8G]_[A10C]_T5.1 (ssRNA)
RNA: B1 RNA with U28A, A29U, C31G, A32U, U33C
B9: Ic_S4_P5E.1_K5.1_C5.1_H5.1_A5.1_[A7T]_F5.1_[T8A]_[T9A]_T5.1 (ssRNA)
RNA: B1 RNA with A29U, G30U, C31A, U33A
B10: Ic_S4_P5E.1_K5.1_C5.1_H5.1_A5.1_[T5C]_[T6A]_[A7G]_F5.1_[A10G]_T5.1 (ssRNA)
RNA: B1 RNA with U28C, C31U, A32U, U33G
B11: Ic_S4_P5E.1_K5.1_C5.1_H5.1_A5.1_[T6C]_[A7C]_F5.1_[T8A]_[T9G]_[A10C]_T5.1 (ssRNA)
RNA: B1 RNA with A29C, G30C, C31A, A32G, U33C
B12: Ic_S4_P5E.1_K5.1_C5.1_H5.1_A5.1_[T6A]_[A7T]_F5.1_[T8C]_[T9C]_[A10T]_T5.1 (ssRNA)
RNA: B1 RNA with G30U, A32C
B13: Ic_S4_P5E.1_K5.1_C5.1_H5.1_A5.1_[T5C]_[T6A]_[A7G]_F5.1_[T9G]_[A10C]_T5.1 (ssRNA)
RNA: B1 RNA with U28C, C31U, A32G, U33C
B14: Ic_S4_P5E.1_K5.1_C5.1_H5.1_A5.1_[T5A]_[T6A]_[A7T]_F5.1_[T8A]_[T9C]_[A10G]_T5.1 (ssRNA)
RNA: B1 RNA with U28A, G30U, C31A, A32C, U33G
B15: Ic_S4_P5E.1_K5.1_C5.1_H5.1_A5.1_[T5A]_[T6C]_[A7T]_F5.1_[T8A]_[A10C]_T5.1 (ssRNA)
RNA: B1 RNA with U28A, A29C, G30U, C31A, A32U, U33C
B16: Ic_S4_P5E.1_K5.1_C5.1_H5.1_A5.1_[T5G]_[A7T]_F5.1_[T8C]_[A10T]_T5.1 (ssRNA)
RNA: B1 RNA with U28G, A29U, G30U, A32U
B17: Ic_S4_P5E.1_K5.1_C5.1_H5.1_A5.1_[T6A]_[A7T]_F5.1_[T8A]_[T9A]_[A10T]_T5.1 (ssRNA)
RNA: B1 RNA with G30U, C31A
B18: Ic_S4_P5E.1_K5.1_C5.1_H5.1_A5.1_[T5A]_[T6C]_[A7T]_F5.1_[T8C]_[T9C]_[A10C]_T5.1 (ssRNA)
RNA: B1 RNA with U28A, A29C, G30U, A32C, U33C
B19: Ic_S4_P5E.1_K5.1_C5.1_H5.1_A5.1_[T5C]_[T6G]_[A7C]_F5.1_[T9A]_[A10C]_T5.1 (ssRNA)
RNA: B1 RNA with U28C, A29G, G30C, C31U, U33C

Where a chain is given by its changes, count along the chain named. Names and notes keep the numbering of the source.

The target of this data set is T1, PUF4 RNA-binding domain. The experiment in a line: Mg; RNA-MaP; 20 mM Na-HEPES pH 7.4, 30 mM KOAc, 0.75 mM MgCl2, 0.1% Tween-20, 5% glycerol, 0.1 mg/mL BSA, 2 mM DTT; 25 C; 0.0125-409.6 nM protein. Conditions: tags: N-His6-TEV cleaved; C-SNAP kept, Cy3B-labelled; label: tethered on chip by stalled RNA polymerase.
In general, Kd refers to the equilibrium constant for the complex coming apart. A low value points to tighter binding. On to B1, for which the Kd is 0.0564 µM. For B2 the value was 0.00713 µM; for B3, 0.402 µM. As to B4, the affinity, expressed as Kd, was 0.229 µM. B5 showed an equilibrium dissociation constant (Kd) of 0.476 µM. Take B6: the Kd was 0.425 µM.

Take B7: the Kd came to 0.0172 µM. Molecule B8 came in with a Kd of 1.35 µM.

For B9, binding was put at a Kd of 0.0389 µM. B10 showed a Kd of 0.0274 µM. With B11, binding was characterised by a dissociation constant (Kd) of 1.01 µM. Under B12 stands 0.0147 µM; under B13, 0.0106 µM; under B14, 0.0503 µM.

B15: the affinity, expressed as Kd, was 0.156 µM.

With B16, the Kd came to 0.0917 µM. For B17 the value was 0.0024 µM. For B18 the value was 0.198 µM; for B19, 0.00666 µM.

Molecule UCUCUUACUGUAUAUAUAUCUCUU (ssRNA) [Id_i_S1_P3E.2_K3.1_C3.2_[C-2A]_[T-1C]_H3.1_A3.1_F3.1_T3.2] registered a Kd of 0.00907 µM. This Kd and that of the molecule before are within 1.5-fold of each other. For UCUCUUUAUGUAUAUAUAUCUCUU (ssRNA) [Id_ii_S1_P3E.2_K3.1_C3.2_[C-2T]_[T-1A]_H3.1_A3.1_F3.1_T3.2] the value was 0.00802 µM. Molecule UCUCUUUGUAUACUGUCUCUU (ssRNA) [Ib_S1_P4E.1_K4.1_C4.1_H4.1_A4.1_[T7C]_F4.1_[A9G]_T4.1] displayed a Kd of 0.00539 µM. Under UCUCUUUCUGUAUAUAUAUCUCUU (ssRNA) [Id_ii_S1_P3E.2_K3.1_C3.2_[C-2T]_[T-1C]_H3.1_A3.1_F3.1_T3.2] stands 0.00333 µM. Regarding UCUCUUUGUAUAGUCUCUCUU (ssRNA) [Ic_S1_P4E.1_K4.1_C4.1_H4.1_A4.1_[T7G]_F4.1_[A9C]_T4.1], the Kd was 0.0234 µM. For UCUCUUUGUAAAUUAUCUCUU (ssRNA) [Ia_S1_P4E.1_K4.1_C4.1_H4.1_A4.1_[T5A]_F4.1_T4.1], the Kd stood at 0.00208 µM.

Molecule UCUCUUUGUAUACUCUCUCUU (ssRNA) [Ic_S1_P4E.1_K4.1_C4.1_H4.1_A4.1_[T7C]_F4.1_[A9C]_T4.1] had a Kd of 0.00932 µM. This Kd lies about 4.5-fold higher than the previous one. In turn, UCUCUUUGUGUAUAUAUAUCUCUU (ssRNA) [Id_ii_S1_P3E.2_K3.1_C3.2_[C-2T]_[T-1G]_H3.1_A3.1_F3.1_T3.2] came in with a Kd of 0.00624 µM.
